In US20240261333A1 (published 2024):

Legend:
Test in all cases: co-IP, anti-FLAG, lysate of cells with N-FLAG B3GNT2; mass spectrometry
[1] = biological target: T1, DNAJC3 (human, UniProt Q13217 32-504)
T1 construct: also called NP_006251.1 (+4)
T1 sequence (looked up): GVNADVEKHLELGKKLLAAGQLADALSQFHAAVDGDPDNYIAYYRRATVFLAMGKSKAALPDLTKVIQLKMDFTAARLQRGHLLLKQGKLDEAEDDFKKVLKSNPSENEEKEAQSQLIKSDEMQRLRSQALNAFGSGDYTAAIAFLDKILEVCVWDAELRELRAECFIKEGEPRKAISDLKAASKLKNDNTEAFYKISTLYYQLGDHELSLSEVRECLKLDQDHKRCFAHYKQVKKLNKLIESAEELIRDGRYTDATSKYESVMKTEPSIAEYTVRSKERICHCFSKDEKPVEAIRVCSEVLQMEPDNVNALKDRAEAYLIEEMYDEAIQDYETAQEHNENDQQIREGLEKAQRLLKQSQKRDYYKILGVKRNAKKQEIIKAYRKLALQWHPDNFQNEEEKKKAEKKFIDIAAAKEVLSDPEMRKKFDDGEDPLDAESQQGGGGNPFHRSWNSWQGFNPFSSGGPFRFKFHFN

[2] = biological target: T2, NUFIP2 (human, UniProt Q7Z417 1-695)
T2 construct: also called NP_065823.1
T2 sequence (looked up): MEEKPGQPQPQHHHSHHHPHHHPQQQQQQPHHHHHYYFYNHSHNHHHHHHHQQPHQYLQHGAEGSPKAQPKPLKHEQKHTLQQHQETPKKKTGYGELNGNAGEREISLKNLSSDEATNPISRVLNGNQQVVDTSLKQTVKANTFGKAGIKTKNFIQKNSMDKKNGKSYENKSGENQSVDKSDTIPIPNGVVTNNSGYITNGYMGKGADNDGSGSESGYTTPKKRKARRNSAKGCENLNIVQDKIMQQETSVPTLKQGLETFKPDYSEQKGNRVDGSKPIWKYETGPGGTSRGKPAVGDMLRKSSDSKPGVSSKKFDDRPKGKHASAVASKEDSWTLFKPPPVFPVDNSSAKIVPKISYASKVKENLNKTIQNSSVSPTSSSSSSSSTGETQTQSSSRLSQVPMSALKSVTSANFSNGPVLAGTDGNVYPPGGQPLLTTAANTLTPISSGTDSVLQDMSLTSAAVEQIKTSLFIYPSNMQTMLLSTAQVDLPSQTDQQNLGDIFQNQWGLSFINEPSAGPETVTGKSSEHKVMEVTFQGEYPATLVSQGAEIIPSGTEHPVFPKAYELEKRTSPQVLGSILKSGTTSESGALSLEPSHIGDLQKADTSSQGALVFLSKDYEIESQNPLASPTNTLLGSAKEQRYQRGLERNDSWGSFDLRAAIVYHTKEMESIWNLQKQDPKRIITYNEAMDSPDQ

[3] = biological target: T3, FUBP3 (human, UniProt Q96I24 2-572)
T3 construct: also called NP_003925.1 (+2)
T3 sequence (looked up): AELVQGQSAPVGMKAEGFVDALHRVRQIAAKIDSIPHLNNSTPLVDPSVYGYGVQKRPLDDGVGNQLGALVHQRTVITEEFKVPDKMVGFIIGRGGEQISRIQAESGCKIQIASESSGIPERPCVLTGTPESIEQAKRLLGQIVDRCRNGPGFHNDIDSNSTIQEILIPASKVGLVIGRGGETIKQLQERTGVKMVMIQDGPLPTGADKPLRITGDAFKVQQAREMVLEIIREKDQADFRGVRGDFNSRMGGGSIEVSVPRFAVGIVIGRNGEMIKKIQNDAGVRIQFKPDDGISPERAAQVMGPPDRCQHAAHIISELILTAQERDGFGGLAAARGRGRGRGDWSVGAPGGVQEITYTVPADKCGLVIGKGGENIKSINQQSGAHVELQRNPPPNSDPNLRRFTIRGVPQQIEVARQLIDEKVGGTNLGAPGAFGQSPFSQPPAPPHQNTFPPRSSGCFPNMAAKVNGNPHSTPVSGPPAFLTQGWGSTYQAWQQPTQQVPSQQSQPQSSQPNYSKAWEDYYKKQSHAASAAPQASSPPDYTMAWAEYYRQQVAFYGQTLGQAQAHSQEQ

[4] = biological target: T4, DDX5 (human, UniProt P17844 1-614)
T4 construct: also called NP_001307526.1
T4 sequence (P17844 whole entry): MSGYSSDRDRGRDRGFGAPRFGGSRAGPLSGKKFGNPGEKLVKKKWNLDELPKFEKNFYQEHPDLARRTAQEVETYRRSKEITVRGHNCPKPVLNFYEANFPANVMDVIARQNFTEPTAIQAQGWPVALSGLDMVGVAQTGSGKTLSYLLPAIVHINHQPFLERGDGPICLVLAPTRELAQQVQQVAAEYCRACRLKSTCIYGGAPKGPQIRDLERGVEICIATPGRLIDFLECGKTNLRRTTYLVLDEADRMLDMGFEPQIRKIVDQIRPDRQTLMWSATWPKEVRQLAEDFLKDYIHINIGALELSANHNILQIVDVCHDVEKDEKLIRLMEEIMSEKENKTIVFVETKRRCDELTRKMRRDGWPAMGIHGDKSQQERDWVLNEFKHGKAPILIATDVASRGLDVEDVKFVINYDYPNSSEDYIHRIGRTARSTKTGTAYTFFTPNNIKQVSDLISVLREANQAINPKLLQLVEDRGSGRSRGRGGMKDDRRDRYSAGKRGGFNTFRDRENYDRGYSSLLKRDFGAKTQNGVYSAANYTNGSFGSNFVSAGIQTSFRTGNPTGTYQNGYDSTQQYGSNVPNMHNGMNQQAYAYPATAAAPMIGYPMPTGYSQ

co-IP mass spectrometry count [1]: 0
co-IP mass spectrometry count [2]: 3
co-IP mass spectrometry count [3]: 8
co-IP mass spectrometry count [4]: 16
B1: N-terminal FLAG tagged B3GNT2 (enzyme, human, UniProt Q9NY97 1-397, looked up)
chain: MSVGRRRIKLLGILMMANVFIYFIMEVSKSSSQEKNGKGEVIIPKEKFWKISTPPEAYWNREQEKLNRQYNPILSMLTNQTGEAGRLSNISHLNYCEPDLRVTSVVTGFNNLPDRFKDFLLYLRCRNYSLLIDQPDKCAKKPFLLLAIKSLTPHFARRQAIRESWGQESNAGNQTVVRVFLLGQTPPEDNHPDLSDMLKFESEKHQDILMWNYRDTFFNLSLKEVLFLRWVSTSCPDTEFVFKGDDDVFVNTHHILNYLNSLSKTKAKDLFIGDVIHNAGPHRDKKLKYYIPEVVYSGLYPPYAGGGGFLYSGHLALRLYHITDQVHLYPIDDVYTGMCLQKLGLVPEKHKGFRTFDIEEKNKNNICSYVDLMLVHSRKPQEMIDIWSQLQSAHLKC
notes: Overexpressed in cells and pulled down from the lysate with mouse anti-FLAG antibody; also called N-FLAG B3GNT2; N-term FLAG; not shown: N-terminal FLAG tag
